Measurements taken from patent US20250171505A1 (CENTRE NATIONAL DE LA RECHERCHE SCIENTIFIQUE CNRS, published 2025).

T1: VSV Gth, soluble form of the ectodomain of G (amino acid residues 1-422, generated by thermolysine l (vesicular stomatitis virus, Indiana …, UniProt P03522 17-438))
T1 sequence: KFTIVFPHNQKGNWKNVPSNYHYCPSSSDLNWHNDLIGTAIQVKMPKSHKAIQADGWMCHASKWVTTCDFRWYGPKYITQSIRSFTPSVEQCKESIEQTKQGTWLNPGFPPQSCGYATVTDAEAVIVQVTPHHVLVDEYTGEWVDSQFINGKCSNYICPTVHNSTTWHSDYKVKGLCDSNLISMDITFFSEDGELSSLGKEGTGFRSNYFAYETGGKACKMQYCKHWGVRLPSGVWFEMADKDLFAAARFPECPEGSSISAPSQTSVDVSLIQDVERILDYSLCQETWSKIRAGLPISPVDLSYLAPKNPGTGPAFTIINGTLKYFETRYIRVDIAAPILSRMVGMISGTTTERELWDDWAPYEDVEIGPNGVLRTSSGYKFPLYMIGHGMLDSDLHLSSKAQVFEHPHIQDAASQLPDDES

B1: CR3 monovalent domain of human LDL-R (isolated, GST removed) (receptor)
chain: not shown
notes: domain: CR3
B2: CR2 monovalent domain of human LDL-R (isolated, GST removed) (receptor)
chain: not shown
notes: domain: CR2
B3: CR1 monovalent domain of human LDL-R (isolated, GST removed) (receptor)
chain: not shown
notes: domain: CR1

Assays:
[1] = molecular target: T1, VSV Gth, soluble form of the ectodomain …
[2] = molecular target: T1, VSV Gth, soluble form of the ectodomain …; experiment: ITC at 20 C, pH 8.0, CR domain injected into Gth
[3] = molecular target: T1, VSV Gth, soluble form of the ectodomain …; experiment: ITC at 20 C, pH 8.0

Row | Binder | Kd [1] [µM] | stoichiometry [2] | binding result [3]
1 | B1 | 4.3 | 1 | 
2 | B2 | 7.3 | 1 | 
3 | B3 |  |  | no binding
